Data as given in article PMC5829564 (Nucleic Acids Research, 2018).

B1: ΔN_Grhl1 (N-terminal truncation construct of human Grhl1, aa 248–618; DBD plus dimerization domain) (domain or fragment, UniProt Q9NZI5 248-618, looked up)
chain: SGNNFEYTLEASKSLRQKPGDSTMTYLNKGQFYPITLKEVSSSEGIHHPISKVRSVIMVVFAEDKSREDQLRHWKYWHSRQHTAKQRCIDIADYKESFNTISNIEEIAYNAISFTWDINDEAKVFISVNCLSTDFSSQKGVKGLPLNIQVDTYSYNNRSNKPVHRAYCQIKVFCDKGAERKIRDEERKQSKRKVSDVKVPLLPSHKRMDITVFKPFIDLDTQPVLFIPDVHFANLQRGTHVLPIASEELEGEGSVLKRGPYGTEDDFAVPPSTKLARIEEPKRVLLYVRKESEEVFDALMLKTPSLKGLMEAISDKYDVPHDKIGKIFKKCKKGILVNMDDNIVKHYSNEDTFQLQIEEAGGSYKLTLTEI
B2: Mut_12mer (dsDNA)
DNA 1: AAAATCGATTTT
DNA 2: AAAATCGATTTT

How the values were obtained:
SEC-RALS = target: the molecule itself; test: SEC-RALS
Grhl1 DBD = target: T1, Grhl1 DBD (Homo sapiens, UniProt Q9NZI5 248-485); test: ITC
T1 sequence: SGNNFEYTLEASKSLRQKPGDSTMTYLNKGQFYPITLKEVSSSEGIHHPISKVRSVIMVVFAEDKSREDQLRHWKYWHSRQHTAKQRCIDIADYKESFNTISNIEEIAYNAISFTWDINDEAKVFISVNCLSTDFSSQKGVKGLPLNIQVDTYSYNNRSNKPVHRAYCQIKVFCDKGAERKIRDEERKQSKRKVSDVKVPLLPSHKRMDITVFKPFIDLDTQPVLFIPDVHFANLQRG

Row | Binder | stoichiometry N (SEC-RALS) | binding result (Grhl1 DBD)
1 | B1 | 2 | 
2 | B2 |  | no binding
